Data published in publication PMC11489063, “Study of sulfoglycolysis in Enterococcus gilvus reveals a widespread bifurcated pathway for dihydroxypropanesulfonate degradation” (iScience, 2024).

Legend:
[1] = molecular target: T1, HpfX (EgHpfX), 3-sulfopropionaldehyde dehydrogenase (Enterococcus gilvus, UniProt R2XKF7); experiment: LC-MS of product 3-SPC, HpfD-coupled; assay type: biochemical; conditions: 3-SPA made in situ by HpfD from 40 mM 3-HPS; 4 mM NAD+, 0.5 mM CoA, CAPSO pH 9.5, RT
T1 construct: gene I592_01329
T1 sequence (R2XKF7 1-455): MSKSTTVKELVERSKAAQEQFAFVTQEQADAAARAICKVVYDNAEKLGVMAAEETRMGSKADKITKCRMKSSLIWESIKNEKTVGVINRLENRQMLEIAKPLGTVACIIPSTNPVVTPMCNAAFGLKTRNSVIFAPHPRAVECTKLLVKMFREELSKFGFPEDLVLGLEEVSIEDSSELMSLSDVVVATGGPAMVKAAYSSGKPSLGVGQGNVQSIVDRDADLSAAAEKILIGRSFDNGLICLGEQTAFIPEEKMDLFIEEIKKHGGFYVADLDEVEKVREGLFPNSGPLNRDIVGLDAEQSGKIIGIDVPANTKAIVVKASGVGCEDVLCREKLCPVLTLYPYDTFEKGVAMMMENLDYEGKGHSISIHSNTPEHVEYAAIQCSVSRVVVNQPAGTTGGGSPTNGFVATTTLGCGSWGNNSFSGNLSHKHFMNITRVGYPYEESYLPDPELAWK

[2] = molecular target: T1, HpfX (EgHpfX), 3-sulfopropionaldehyde dehydrogenase; experiment: spectrophotometric NADH consumption, A340, HpfYZ-coupled; assay type: biochemical; conditions: reduction of 3-SPC made in situ by HpfYZ; 0.4 mM NADH, 10 mM 3-SP, 2 mM ATP, 0.4 mM CoA, 10 mM MgCl2, Tris pH 7.5, RT
O=S(=O)(O)CCCO = experiment: purified protein; conditions: apparent, oxidation direction, 4 mM NAD+, 50 mM CAPSO pH 9.5, RT
[3] = test system: NC(=O)c1ccc[n+]([C@@H]2O[C@H](COP(=O)(O)OP(=O)(O)OC[C@H]3O[C@@H](n4cnc5c(N)ncnc54)[C@H](O)[C@@H]3O)[C@@H](O)[C@H]2O)c1; experiment: purified protein; conditions: apparent, oxidation direction, 40 mM 3-HPS, 50 mM CAPSO pH 9.5, RT
[4] = substrate: Nc1ncnc2c1ncn2[C@@H]1O[C@H](COP(=O)(O)OP(=O)(O)OP(=O)(O)O)[C@@H](O)[C@H]1O; experiment: PK-LDH coupled spectrophotometric assay, A340; assay type: biochemical, Enterococcus gilvus; conditions: apparent, 2 mM 3-SP, 0.4 mM CoA, 10 mM MgCl2, 50 mM KCl, Tris-HCl pH 7.5, RT
[5] = substrate: O=C(O)CCS(=O)(=O)O; experiment: PK-LDH coupled spectrophotometric assay, A340; assay type: biochemical, Enterococcus gilvus; conditions: apparent, 2 mM ATP, 0.4 mM CoA, 10 mM MgCl2, 50 mM KCl, Tris-HCl pH 7.5, RT
[6] = substrate: CC(C)(COP(=O)(O)OP(=O)(O)OC[C@H]1O[C@@H](n2cnc3c(N)ncnc32)[C@H](O)[C@@H]1OP(=O)(O)O)[C@@H](O)C(=O)NCCC(=O)NCCS; experiment: PK-LDH coupled spectrophotometric assay, A340; assay type: biochemical, Enterococcus gilvus; conditions: apparent, 2 mM 3-SP, 2 mM ATP, 10 mM MgCl2, 50 mM KCl, Tris-HCl pH 7.5, RT

`O=CCCS(=O)(=O)O` [3-SPA] was tested, and the “LC-MS of product 3-SPC, HpfD-coupled” value [1] was “The ability of the HpfX to oxidize 3-SPA into 3-SPC was ascertained”.

For `NC(=O)C1=CN([C@@H]2O[C@H](COP(=O)(O)OP(=O)(O)OC[C@H]3O[C@@H](n4cnc5c(N)ncnc54)[C@H](O)[C@@H]3O)[C@@H](O)[C@H]2O)C=CC1` [NADH], the “spectrophotometric NADH consumption, A340, HpfYZ-coupled” value [2] was “indicating reduction of 3-SPC accompanied by the consumption of NADH”.

With “HpfD (EgHpfD), 3-sulfopropionaldehyde reductase (Enterococcus gilvus ATCC BAA-350)” the Km (O=S(=O)(O)CCCO) was 4970 ± 570 µM, the kcat (O=S(=O)(O)CCCO) was 15.30 ± 0.37 s⁻¹ and the Km [3] was 640 ± 90 µM. The kcat [3] was 20.87 ± 0.84 s⁻¹.

B1: HpfYZ (EgHpfY / EgHpfZ), 3-sulfopropionate-CoA ligase (Enterococcus gilvus ATCC BAA-350) (protein)
chain 1: MDYLEIEGKAQLERFGIPINESILLTGDNIPEDIPYPCVLKGQILSGKRGKAGAVRVVKTRAELIEAKEIIEQIKINDQVMEGVIACGFLPIEEEYYLGMTLDVKNRAMIMLFTPFGGMDIEELAETDPEKLLRFDCTEGFNAEKFKKASTIFELPEKRLNLVVDIAEKLSEACFALDATTIEINPLALLKDESLMAIDAKLVIDDNALYRQGDYTILPRTVQEKSLQEIEAEQYDLTYVEVDPKGNIGTMAGGAGIGMATMDTVFHYGGRVNNFLDLGGGVTSEKTYQAMRILLENENTDYILINIFGGINNCADMAEGITRAYKESGISKTVVVKSRGFNQEQGWSMYKELGFPQAKYGTTDEAVQILLALKGAK
chain 2: MSILINQETELLIIGITGKQGRIHAKRTIESGAKLRAGVAPGKNGEMVEGIPVFESVEDARKEFPQIRAAMLLTPPRFVKDAAIQALQSGIELLVIITEFVPVLDTLEIVTKAKKLGAKVVGPNTIGVIAPGKSKLGIMPADIYGKGRIGIISRSGTLTHETASNLTFKGYGLSTCVGIGGDSIVGMDHADVLELFANDDETDAIVLIGEIGGTSEEMAAAKIKELNIQKPICAYIAGMHAPENKKMGHAGAIVSGNMGTVKSKVEALEDAGVTVCPTLGKIVEFMEKTNSQTNGKLRSLEPKVDASILQT
notes: N-terminal His6-TEV tagged HpfY co-expressed with untagged HpfZ in E. coli BL21(DE3), co-purified 1:1 (predicted heterodimer); codon-optimized genes
B1 was tested, and the Km [4] was 180 ± 140 µM, the kcat [4] was 0.33 ± 0.01 s⁻¹ and the Km [5] was 510 ± 70 µM. For the same molecule, the kcat [5] was 0.38 ± 0.01 s⁻¹, the Km [6] was 110 ± 30 µM and the kcat [6] was 0.45 ± 0.04 s⁻¹.
